For series [1], the system named is T1, Cry8Bb1-ISC-1 88 kDa polypeptide.
T1 sequence: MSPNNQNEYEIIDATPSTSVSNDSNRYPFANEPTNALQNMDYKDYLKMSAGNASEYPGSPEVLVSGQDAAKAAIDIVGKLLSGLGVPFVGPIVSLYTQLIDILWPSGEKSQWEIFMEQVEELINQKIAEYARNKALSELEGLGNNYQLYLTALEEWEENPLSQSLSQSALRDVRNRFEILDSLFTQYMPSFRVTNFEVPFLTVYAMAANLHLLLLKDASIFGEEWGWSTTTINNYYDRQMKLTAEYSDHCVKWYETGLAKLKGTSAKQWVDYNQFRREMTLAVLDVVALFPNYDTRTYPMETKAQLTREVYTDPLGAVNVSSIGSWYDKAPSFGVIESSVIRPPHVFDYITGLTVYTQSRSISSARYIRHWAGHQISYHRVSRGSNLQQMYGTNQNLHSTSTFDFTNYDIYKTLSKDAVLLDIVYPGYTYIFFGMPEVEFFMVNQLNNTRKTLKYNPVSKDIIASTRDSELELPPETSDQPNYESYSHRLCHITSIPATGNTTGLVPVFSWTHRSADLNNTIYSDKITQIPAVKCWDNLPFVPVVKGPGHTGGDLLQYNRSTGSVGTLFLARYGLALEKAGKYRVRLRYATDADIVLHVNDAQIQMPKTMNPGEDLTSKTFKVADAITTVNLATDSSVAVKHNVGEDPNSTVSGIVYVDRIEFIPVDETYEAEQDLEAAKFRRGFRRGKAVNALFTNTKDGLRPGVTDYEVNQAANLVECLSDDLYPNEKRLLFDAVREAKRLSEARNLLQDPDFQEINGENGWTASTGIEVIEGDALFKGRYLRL

Series [2] has as its system T2, Cry8Bb1-K05 88 kDa polypeptide.
T2 sequence: T1 sequence with L161F, S162R, Q163R, S164G, L165F, S166R, Q167R, S168G

Substitutions are numbered along the chain they refer to.

With trypsin, the “proteolytic digestion for 72 h (SDS-PAGE)” value in series [1] was “the 88 kDa Cry8Bb1-ISC-1 polypeptide was not cleaved within the activation loop to generate the 55 kDa polypeptide”. Further, in series [2], the “proteolytic digestion for 72 h (SDS-PAGE, N-terminal sequencing)” value is “Cry8Bb1-K05 was cleaved within the loop between helix 3 and 4 of domain I of the toxin molecule to generate a 55 kDa polypeptide”.

Consider chymotrypsin, for which, in series [1], the “proteolytic digestion for 72 h (SDS-PAGE)” value is recorded as “the 88 kDa Cry8Bb1-ISC-1 polypeptide was not cleaved within the activation loop to generate the 55 kDa polypeptide”. In series [2], the “proteolytic digestion for 72 h (SDS-PAGE, N-terminal sequencing)” value is “Cry8Bb1-K05 was cleaved within the loop between helix 3 and 4 of domain I of the toxin molecule to generate a 55 kDa polypeptide”.

These data come from US20060288448.
